Target: T1, FBXW24‐EGFP‐Strep II protein, purified from Sf9 (mouse, UniProt E9PXM9 1-466)
T1 construct: FBXW24 (F-box and WD-40 domain protein 24), mouse, gene ID 382106; also called FBXW24‐StrepII; in vitro purified FBXW24; source: Sf9 (Bac-to-bac baculovirus), purified (Ni-NTA); not shown: EGFP, C-terminal, kept; Strep II, C-terminal, kept
T1 sequence (looked up): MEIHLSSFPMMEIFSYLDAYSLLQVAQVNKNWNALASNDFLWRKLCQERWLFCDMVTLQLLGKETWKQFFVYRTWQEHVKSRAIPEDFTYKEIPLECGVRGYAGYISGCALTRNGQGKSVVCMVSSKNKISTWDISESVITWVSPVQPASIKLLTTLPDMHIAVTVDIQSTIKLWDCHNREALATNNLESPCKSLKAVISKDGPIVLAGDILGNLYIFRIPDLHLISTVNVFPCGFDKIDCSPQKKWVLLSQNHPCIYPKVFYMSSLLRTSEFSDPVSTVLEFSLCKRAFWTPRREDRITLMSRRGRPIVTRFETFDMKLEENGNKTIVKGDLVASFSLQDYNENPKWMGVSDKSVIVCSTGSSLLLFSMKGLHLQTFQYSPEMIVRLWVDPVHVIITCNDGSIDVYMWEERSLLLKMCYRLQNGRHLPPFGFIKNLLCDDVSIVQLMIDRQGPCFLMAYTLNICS
Assay: co-IP; co-IP between in vitro purified proteins; 1 μg SYCP3‐Flag protein and/or FBXW24‐StrepII protein in each reaction
Conditions: both partners purified

B1: SYCP3‐TagRFP‐Flag protein, purified from Sf9 (natural protein, mouse, UniProt P70281 1-254, looked up)
chain: MLRGCGDSDSSPEPLSKHLKMVPGGRKHSGKSGKPPLVDQPKKAFDFEKDDKDLSGSEEDVADEKAPVIDKHGKKRSAGIIEDVGGEVQNMLEKFGADINKALLAKRKRIEMYTKASFKASNQKIEQIWKTQQEEIQKLNNEYSQQFMNVLQQWELDIQKFEEQGEKLSNLFRQQQKIFQQSRIVQSQRMFAMKQIHEQFIKSLEDVEKNNDNLFTGTQSELKKEMAMLQKKVMMETQQQEMANVRKSLQSMLF
notes: SYCP3, synaptonemal complex lateral element protein; The purified protein ran as several bands, and the upper bands carried ubiquitin; also called SYCP3‐Flag; in vitro purified SYCP3; source: Sf9 (Bac-to-bac baculovirus), purified (Ni-NTA); not shown: TagRFP, C-terminal, kept; Flag, C-terminal, kept
  binding result: binds
